The target in assay [1] is ScVLa capsid protein Cap, full size (697 amino acids) (ScVLa virus of Saccharomyces cerevisiae).
Assay [2] concerns the target ScVL1 capsid protein Cap, full size (680 amino acids) (ScVL1 virus of Saccharomyces cerevisiae).
Assay [3] has as its target T1, ScVL1 capsid protein Cap, full size (680 amino acids) (ScVL1 virus of Saccharomyces cerevisiae).
T1 chain: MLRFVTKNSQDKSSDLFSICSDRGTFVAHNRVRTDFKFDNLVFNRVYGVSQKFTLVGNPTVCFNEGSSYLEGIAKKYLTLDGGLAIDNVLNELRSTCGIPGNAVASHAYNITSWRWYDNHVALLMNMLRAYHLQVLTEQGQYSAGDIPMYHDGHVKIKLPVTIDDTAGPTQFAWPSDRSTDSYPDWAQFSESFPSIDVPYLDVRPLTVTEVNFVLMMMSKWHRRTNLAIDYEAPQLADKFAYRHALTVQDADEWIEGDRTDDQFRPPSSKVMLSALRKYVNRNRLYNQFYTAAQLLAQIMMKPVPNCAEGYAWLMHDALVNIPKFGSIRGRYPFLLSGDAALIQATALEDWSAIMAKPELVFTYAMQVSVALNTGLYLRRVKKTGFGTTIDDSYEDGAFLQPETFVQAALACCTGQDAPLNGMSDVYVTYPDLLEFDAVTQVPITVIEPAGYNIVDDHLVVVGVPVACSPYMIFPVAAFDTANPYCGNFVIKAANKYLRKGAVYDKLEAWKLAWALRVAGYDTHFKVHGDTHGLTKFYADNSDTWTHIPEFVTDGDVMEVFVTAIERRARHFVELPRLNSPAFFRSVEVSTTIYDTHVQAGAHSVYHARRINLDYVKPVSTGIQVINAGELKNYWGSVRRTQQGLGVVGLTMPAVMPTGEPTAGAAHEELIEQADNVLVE
Put plainly: cell-based or functional assay.

Where two headings read alike, the source gives them in different places.

In turn, “La Cap N-terminal fragment of pGLa1d3 (aa 1-443)” registered a Curing (%) of ScVLa in assay [1] of 100%.
With “L1 Cap N-terminal fragment of pGL1d2 (aa 1-603)”, the Curing (%) of ScVL1 in assay [2] stood at 100%.
As for MLRFVTKNS [L1 Cap N-terminal fragment of nonsense mutant pGL1m13 (Q10O, aa 1-9)], in assay [3], the “Curing (%) of ScVL1” value is below 5%.

B1: L1 Cap N-terminal fragment of nonsense mutant pGL1m12 (E435O, aa 1-434) (other)
chain: MLRFVTKNSQDKSSDLFSICSDRGTFVAHNRVRTDFKFDNLVFNRVYGVSQKFTLVGNPTVCFNEGSSYLEGIAKKYLTLDGGLAIDNVLNELRSTCGIPGNAVASHAYNITSWRWYDNHVALLMNMLRAYHLQVLTEQGQYSAGDIPMYHDGHVKIKLPVTIDDTAGPTQFAWPSDRSTDSYPDWAQFSESFPSIDVPYLDVRPLTVTEVNFVLMMMSKWHRRTNLAIDYEAPQLADKFAYRHALTVQDADEWIEGDRTDDQFRPPSSKVMLSALRKYVNRNRLYNQFYTAAQLLAQIMMKPVPNCAEGYAWLMHDALVNIPKFGSIRGRYPFLLSGDAALIQATALEDWSAIMAKPELVFTYAMQVSVALNTGLYLRRVKKTGFGTTIDDSYEDGAFLQPETFVQAALACCTGQDAPLNGMSDVYVTYPDLL
On to B1, for which the “Curing (%) of ScVL1” value in assay [3] is below 5%.

B2: L1 Cap N-terminal fragment of nonsense mutant pGL1m14 (Y485O, aa 1-484) (other)
chain: MLRFVTKNSQDKSSDLFSICSDRGTFVAHNRVRTDFKFDNLVFNRVYGVSQKFTLVGNPTVCFNEGSSYLEGIAKKYLTLDGGLAIDNVLNELRSTCGIPGNAVASHAYNITSWRWYDNHVALLMNMLRAYHLQVLTEQGQYSAGDIPMYHDGHVKIKLPVTIDDTAGPTQFAWPSDRSTDSYPDWAQFSESFPSIDVPYLDVRPLTVTEVNFVLMMMSKWHRRTNLAIDYEAPQLADKFAYRHALTVQDADEWIEGDRTDDQFRPPSSKVMLSALRKYVNRNRLYNQFYTAAQLLAQIMMKPVPNCAEGYAWLMHDALVNIPKFGSIRGRYPFLLSGDAALIQATALEDWSAIMAKPELVFTYAMQVSVALNTGLYLRRVKKTGFGTTIDDSYEDGAFLQPETFVQAALACCTGQDAPLNGMSDVYVTYPDLLEFDAVTQVPITVIEPAGYNIVDDHLVVVGVPVACSPYMIFPVAAFDTANP
Consider B2, for which the “Curing (%) of ScVL1” value in assay [3] is below 5%.

B3: L1 Cap N-terminal fragment of pGL1d4 (aa 1-435) (other)
chain: MLRFVTKNSQDKSSDLFSICSDRGTFVAHNRVRTDFKFDNLVFNRVYGVSQKFTLVGNPTVCFNEGSSYLEGIAKKYLTLDGGLAIDNVLNELRSTCGIPGNAVASHAYNITSWRWYDNHVALLMNMLRAYHLQVLTEQGQYSAGDIPMYHDGHVKIKLPVTIDDTAGPTQFAWPSDRSTDSYPDWAQFSESFPSIDVPYLDVRPLTVTEVNFVLMMMSKWHRRTNLAIDYEAPQLADKFAYRHALTVQDADEWIEGDRTDDQFRPPSSKVMLSALRKYVNRNRLYNQFYTAAQLLAQIMMKPVPNCAEGYAWLMHDALVNIPKFGSIRGRYPFLLSGDAALIQATALEDWSAIMAKPELVFTYAMQVSVALNTGLYLRRVKKTGFGTTIDDSYEDGAFLQPETFVQAALACCTGQDAPLNGMSDVYVTYPDLLE
With B3, the “Curing (%) of ScVL1” value in assay [3] is below 5%.

B4: L1 Cap N-terminal fragment of pGL1d5 (aa 1-433) (other)
chain: MLRFVTKNSQDKSSDLFSICSDRGTFVAHNRVRTDFKFDNLVFNRVYGVSQKFTLVGNPTVCFNEGSSYLEGIAKKYLTLDGGLAIDNVLNELRSTCGIPGNAVASHAYNITSWRWYDNHVALLMNMLRAYHLQVLTEQGQYSAGDIPMYHDGHVKIKLPVTIDDTAGPTQFAWPSDRSTDSYPDWAQFSESFPSIDVPYLDVRPLTVTEVNFVLMMMSKWHRRTNLAIDYEAPQLADKFAYRHALTVQDADEWIEGDRTDDQFRPPSSKVMLSALRKYVNRNRLYNQFYTAAQLLAQIMMKPVPNCAEGYAWLMHDALVNIPKFGSIRGRYPFLLSGDAALIQATALEDWSAIMAKPELVFTYAMQVSVALNTGLYLRRVKKTGFGTTIDDSYEDGAFLQPETFVQAALACCTGQDAPLNGMSDVYVTYPDL
As to B4, the “Curing (%) of ScVL1” value in assay [3] was below 5%.

B5: L1 Cap N-terminal fragment of nonsense mutant pGL1m15 (G501O, aa 1-500) (other)
chain: MLRFVTKNSQDKSSDLFSICSDRGTFVAHNRVRTDFKFDNLVFNRVYGVSQKFTLVGNPTVCFNEGSSYLEGIAKKYLTLDGGLAIDNVLNELRSTCGIPGNAVASHAYNITSWRWYDNHVALLMNMLRAYHLQVLTEQGQYSAGDIPMYHDGHVKIKLPVTIDDTAGPTQFAWPSDRSTDSYPDWAQFSESFPSIDVPYLDVRPLTVTEVNFVLMMMSKWHRRTNLAIDYEAPQLADKFAYRHALTVQDADEWIEGDRTDDQFRPPSSKVMLSALRKYVNRNRLYNQFYTAAQLLAQIMMKPVPNCAEGYAWLMHDALVNIPKFGSIRGRYPFLLSGDAALIQATALEDWSAIMAKPELVFTYAMQVSVALNTGLYLRRVKKTGFGTTIDDSYEDGAFLQPETFVQAALACCTGQDAPLNGMSDVYVTYPDLLEFDAVTQVPITVIEPAGYNIVDDHLVVVGVPVACSPYMIFPVAAFDTANPYCGNFVIKAANKYLRK
Take B5: the “Curing (%) of ScVL1” value in assay [3] was below 5%.

These data come from patent publication US5831013, “Capsid polypeptides and use to inhibit viral packaging” (The Research Foundation of State University of New York, dated 1998).
